Source: US20080311122A1, “Antagonists of Hmgb1 and/or Rage and Methods of Use Thereof” (Medimmune, LLC, priority 2005, published 2008)

Columns and labels:
[1] = tested on: heat inactivated S. aureus induced peritonitis; experiment: S. aureus mouse model of peritonitis; type: in vivo
Method: Induction of Peritonitis: Four-six week old female BALB/c mice were used. […] For determination of HMG1 levels on day 0 approximately 10^9 heat inactivated S. aureus (strain 8325-4) cells premixed with 20 mg of galactosamine or galactosamine alone in a 200 μl volume of PBS was administered i.p. A third group of animals was not challenged. Animals were euthanized at 2, 8, and 12 hours after challenge by CO2 inhalation and blood was collected by cardiac puncture. For the antibody treatment studies on day 0 approximately 10^9 heat inactivated S. aureus (strain 8325-4) cells premixed with 20 mg of galactosamine were administered i.p. in a 200 μl volume and the following treatments were administered i.p. in a 100 μl volume 30 minutes prior to challenge as shown in Table 7.
The animals were also weighed 2× weekly. Animals showing signs of significant morbidity were euthanized. On day 15 all surviving animals were euthanized (euthanized sooner if significant morbidity observed).

LPS-induced ALI = experiment: LPS induced acute lung injury (ALI) mouse model; type: in vivo; conditions: percent protection, isotype control subtracted
Method: Induction of LPS-induced ALI: LPS (E. coli strain 01111:B4. Sigma, St. Louis, Mo.) was administered intranasally to isoflurane (Baxter Pharmaceuticals, Deerfield, Ill.) anesthetized adult BALB/c mice on day 1 at a dose of 5-10 ug per mouse in 50-100 μl. For determination of HMG1 levels animals were euthanized by CO2 asphyxiation at 4, 8, 24, 32 and 48 hours post LPS administration, and BronchoAlvcolar Lavarge (BAL) and other samples collected for protein analysis and histopathology. For treatment protocols 24 hours post LPS dosing, anti-HMGB1 antibodies, HMG1 A-box Fc fusion or controls were administered intraperitoneally (i.p.) at a dose of 10 mg/kg in 100 ul volumes. On day 3 (48 h post LPS dosing), animals were euthanized by CO2 asphyxiation and samples (BALs, blood, and lungs) collected for analysis.
BAL Sample Collection: lungs were flushed three times with ˜0.8 ml Phosphate buffered saline (PBS, pH 7.2, GIBCO, Rockville, Md.) using a syringe with a catheter tubing. BAL samples collected were centrifuged at 1,200 rpm for 10 min at 4 C, supernatant collected and stored at −80 C for protein (e.g. HMGB1) quantitation, and cells in pellet were resuspended and transferred to cytoslides, fixed, GIEMSA stained, and BAL cellularity determined visually with the aid of a microscope.

[2] = target: T1, HMG1 (recombinant, native; immobilized, soluble) (Homo sapiens, UniProt P09429); experiment: Direct and sandwich (capture) ELISA comparing forms of HMG1; type: binding; conditions: capture ELISA
T1 construct: made in house; host or cells: E. coli
T1 sequence (P09429 1-215): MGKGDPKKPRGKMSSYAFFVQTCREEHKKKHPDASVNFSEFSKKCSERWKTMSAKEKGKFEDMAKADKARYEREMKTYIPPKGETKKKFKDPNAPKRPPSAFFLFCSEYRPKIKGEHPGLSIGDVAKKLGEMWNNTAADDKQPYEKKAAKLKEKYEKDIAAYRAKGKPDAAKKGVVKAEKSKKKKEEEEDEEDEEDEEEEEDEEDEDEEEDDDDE
Method: Direct ELISA (immobilized HMG1): Individual wells of a 96-well immunoplate (EIA/RIA plate, High binding, Costar) were coated with HMGB-1 at 5 μg/ml in PBS at 4° C. overnight. The plate was then blocked with 4% milk powder dissolved in PBS at 37° C. for 1 hour. The blocking solution was removed and replaced with human anti-HMG1 antibodies at various concentrations (see FIG. 4A). The plate was then washed (ELX-405 Plate washer, BIO-TEK) and secondary antibody (anti-human IgG-HRP, PIERCE) was added at a final concentration of 1:125,000 at 37° C. for 1 hour. HRP activity was detected with Sureblue HRP substrate (KPL). Plates were read at 450 nm using a Kinetic Microplate Reader (Molecular Devices).
Sandwich ELISA (soluble HMG1): Immunoplates (EIA/RIA plate, High binding, Costar) were coated with anti human IgG Fc at 10 μg/ml in PBS (pH 7.2) and incubated at 4° C. overnight. The coating reagent was removed and the plates were rinsed briefly with PBS. The plates were then blocked with 4% milk for 1 hour at 37° C. and rinsed with PBS. The anti-HMG1 antibodies were diluted in 4% milk. For serial dilutions, the antibodies were used at a starting concentration of 20 μg/ml. The diluted anti-HMG1 antibodies were then added into plate and incubated for 1 hr at 37° C. The plate was then washed 10 times with PBST (PBS/0.1% tween 20) and incubate with antigen (HMGB1, 2 μg/ml; or 0.7 μg/ml for native HMGB1) in 4% milk and incubated at 37° C. for 1 h. The plate was then wash 10 times and incubated with mouse anti-HMGB1, 1 μg/ml in 4% milk at 37° C. for 1 h. The plate was washed 10 times and incubated with anti-mouse IgG-HRP at 1:1000 at 37° C. for 1 h. The plate was then washed and developed. HRP activity was detected with Sureblue HRP substrate (KPL). Plates were read at 450 nm using a Kinetic Microplate Reader (Molecular Devices).

HMGB-1 = target: T2, HMGB-1 (Homo sapiens, UniProt P09429); experiment: Antibody HMG1 binding competition via BIAcore analysis
T2 sequence (P09429 1-215): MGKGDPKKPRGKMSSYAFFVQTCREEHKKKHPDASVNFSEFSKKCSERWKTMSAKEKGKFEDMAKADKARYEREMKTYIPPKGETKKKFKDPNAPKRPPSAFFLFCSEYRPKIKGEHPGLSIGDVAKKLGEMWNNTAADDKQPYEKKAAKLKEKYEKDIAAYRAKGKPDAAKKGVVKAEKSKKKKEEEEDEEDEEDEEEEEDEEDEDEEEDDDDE
Method: Antibody HMG1 Binding Competition via BIAcore Analysis: All experiments were performed on a BIAcore 3000 instrument (BIAcore, Inc., Piscataway, N.J.). The HMGB-1 protein was immobilized onto a CM5 sensor using a standard amine coupling chemistry protocol, as described in the BIAcore Handbook (BIAcore, Inc., Piscataway, N.J.). Briefly, the CM5 surface subject to the NHS/EDC activation. After activation a HMGB-1 was injected over the surface at a concentration of 100 nM or 200 nM (in 10 mM NaOAc, pH4) to a surface density of between 1100 and 1200 RU's. Following this, unreacted sites on the sensor chip surface were “capped” with an injection of 1M ethanolamine. For reference purposes, a blank flow cell was also prepared, utilizing this same procedure that was used to immobilize HMGB-1, but without any ligand.
MAbs G2, G4, G9, S6 and Synagis were prepared at 1 uM and 2 uM. All mAb solutions were prepared in HBS-EP buffer (BIAcore, Inc., Piscataway, N.J.). Each cycle started with a 100 μL injection of the first mAb, injected at 1 μM, followed by a second 100 μL injection of a 1:1 mixture of two, 2× concentration mAbs, such that the final concentration of each component mAb in the mixture is equivalent to the first injection. […]
Once the entire set had been collected, the maximum RU responses for each mAb after each injection cycle was recorded. […]

B1: E11: human anti-HMG1 antibody, recognizes HMG1 A-Box; VL/VH aa SEQ ID NO: 24/26 (antibody, listed as Homo sapiens, V domains shown)
VH: EVQLLESGGGLVQPGGSLRLSCAASGFTFSRYQMNWVRQAPGKGLEWVSSISPSGGHTHYADSVKGRFTISRDNSKNTLYLQMNSLRAEDTAVYYCAKDGRQGKISTVDHWGQGTLVTVSS
VL: AQDIQMTQSPGTLSLSPGERATLSCRASQSVRSNFLAWYQQKPGQAPRLLIYGASRRASGIPDRFSGSGFGADFTLSISRLEPEDFAVYYCQQYGSSPNTFGQGSRVEIK
Q: What does the source list for B1?
A: mice survived ([1]; lethal dose of heat inactivated S. aureus): 8%; in vivo S. aureus ([1]; percent protection, isotype control subtracted): 8%; in vivo ALI (LPS-induced ALI): 37%

B2: S16: human anti-HMG1 antibody, ATCC PTA-6259; VL/VH aa SEQ ID NO: 13/15 (antibody, listed as Homo sapiens, V domains shown)
VH: EVQLLESGGGLVQPGGSLRLSCAASGFTFSWYSMLWVRQAPGKGLEWVSYISPSGGFTNYADSVKGRFTISRDNSKNTLYLQMNSLRAEDTAVYYCARWDYNSGWYYDHWGQGTLVTVSS
VL: AQDIQMTQSPDTLSLSPGERATLSCRASQSVNSRNLAWYQQKPGQAPRLLIYGASTRATGIPDRFSGSVSGTEFTLTISSLQPDDFATYYCQQYNSYFTFGQGTKLEIK
Q: How did the “binding to native nuclear, necrotic (released) and activated HMG1” value [2] turn out when B2 was run?
A: little difference in binding to the various native forms of HMG1

B3: G9: human anti-HMG1 antibody; VL/VH aa SEQ ID NO: 34/36 (antibody, listed as Homo sapiens, V domains shown)
VH: EVQLLESGGGLVQPGGSLRLSCAASGFTFSSYDMFWVRQAPGKGLEWVSRISPSGGYTYYADSVKGRFTISRDNSKNTLYLQMNSLRAEDTAVYYCARLRYFDSRGYAFDIWGQGTMVTVSS
VL: AQDIQMTQSPGTLSLSPGERATLSCRASQSVRSSYLAWYQQKPGQAPRLLIYGASTRATGIPDRFSGSGSGTDFTLTISRLEPEDFAVYYCQQYGTSRWTFGQGTKVEIK
Q: Which “binding sites on HMGB1 by BIAcore competition” value (HMGB-1) does the source give for B3 here?
A: bind to either the same site or sites that are highly related perhaps overlapping
